Results: paper PMC4549865, “The Escherichia coli NarL receiver domain regulates transcription through promoter specific functions” (BMC Microbiology, 2015)

Biological target: the molecule itself
Test: AUC; sedimentation equilibrium, 4 °C, Beckman Optima XL-A, absorption optics; samples at 60 μM and 160 μM in 25 mM Tris pH 7.5-8.5, 500 mM NaCl (other salts in some runs); 11,000-22,000 rpm; single-species fits and global fits of monomer-dimer and other models; monomer to dimer

Row | Protein | stoichiometry N
1 | NarL N-terminal domain plus linker region (NarL^N, residues 2-141), unphosphorylated (domain or fragment, Escherichia coli, UniProt P0AF28 2-141, looked up, NarL, nitrate response regulator of Escherichia coli; residues 2-141 (in-frame beginning at Ser2, stop codon introduced at Leu142); receiver domain and linker helix alpha6; The pQE9 construction puts a Gly in the place of Met1, before Ser2; also called NarL^(N (2–141)); NarL RD; source: E. coli JM109 (pQE9 derivative pMJ99), purified (Ni-NTA resin or HiTrap chelating column)) SNQEPATILLIDDHPMLRTGVKQLISMAPDITVVGEASNGEQGIELAESLDPDLILLDLNMPGMNGLETLDKLREKSLSGRIVVFSVSNHEEDVVTALKRGADGYLLKDMEPEDLLKALHQAAAGEMVLSEALTPVLAAS | 2
2 | Phosphorylated NarL receiver domain with portion of the linker (NarL^N-P, residues 2-141) (domain or fragment, Escherichia coli, UniProt P0AF28 2-141, looked up, phosphorylated with acetyl phosphate; the site of phosphorylation is Asp59, NarL, nitrate response regulator of Escherichia coli; residues 2-141 (in-frame beginning at Ser2, stop codon introduced at Leu142); receiver domain and linker helix alpha6; The pQE9 construction puts a Gly in the place of Met1, before Ser2; also called phosphorylated NarL^N; phosphorylated RD) SNQEPATILLIDDHPMLRTGVKQLISMAPDITVVGEASNGEQGIELAESLDPDLILLDLNMPGMNGLETLDKLREKSLSGRIVVFSVSNHEEDVVTALKRGADGYLLKDMEPEDLLKALHQAAAGEMVLSEALTPVLAAS | 2
